Experimental data reported in PMC8071376.

Columns and labels:
[1] = system: His6-RelB (Streptococcus pneumoniae R6); assay: DNase I footprinting; details: DNase I footprinting: 40 mM Tris-HCl pH 7.9, 6 mM MgCl2, 1 mM CaCl2, 10 mM NaCl plus 100 mM NaCl, 1 mM DTT, 10% glycerol, 10 ug/mL heparin or 50 ng …
[2] = system: RelB (untagged, in RelB:RelE-His6 complex);RelE-His6 (Streptococcus pneumoniae R6;Streptococcus pneumoniae R6); assay: DNase I footprinting; details: DNase I footprinting: 40 mM Tris-HCl pH 7.9, 6 mM MgCl2, 1 mM CaCl2, 10 mM NaCl plus 100 mM NaCl, 1 mM DTT, 10% glycerol, 10 ug/mL heparin or 50 ng …

Substance: PrelBE 199-bp promoter fragment
- binding [1]: 10 µM
- binding [2]: 1 µM
